{
  "source": "patent US20120060230",
  "assay_in_all_cases": "cell_activity",
  "key": {"ZFN 28385 (synthetic)": {"test_system": "ZFN 28385 (synthetic)", "details": "pair with 28386, HEK293"}, "ZFN 28386 (synthetic)": {"test_system": "ZFN 28386 (synthetic)", "details": "pair with 28385, HEK293"}, "ZFN 28406 (synthetic)": {"test_system": "ZFN 28406 (synthetic)", "details": "pair with 28405, HEK293"}, "ZFN 28405 (synthetic)": {"test_system": "ZFN 28405 (synthetic)", "details": "pair with 28406, HEK293"}, "ZFN 15487 (synthetic)": {"test_system": "ZFN 15487 (synthetic)", "details": "pair with 15486, K562; approx 1% in RAJI"}, "ZFN 25540 (synthetic)": {"test_system": "ZFN 25540 (synthetic)", "details": "pair with 25539, 10 ug mRNA, primary T cells; background 2.4%"}, "ZFN 28404 (synthetic)": {"test_system": "ZFN 28404 (synthetic)", "details": "pair with 28403, HEK293"}, "ZFN 15872 (synthetic)": {"test_system": "ZFN 15872 (synthetic)", "details": "pair with 15873, wt FokI, K562; approx 28% with EL/KK"}, "ZFN 15873 (synthetic)": {"test_system": "ZFN 15873 (synthetic)", "details": "pair with 15872, wt FokI, K562; approx 28% with EL/KK"}, "ZFN 28403 (synthetic)": {"test_system": "ZFN 28403 (synthetic)", "details": "pair with 28404, HEK293"}, "ZFN 15910 (synthetic)": {"test_system": "ZFN 15910 (synthetic)", "details": "pair with 15909, EL/KK FokI, K562; 6 and 11% with wt FokI"}, "ZFN 15507 (synthetic)": {"test_system": "ZFN 15507 (synthetic)", "details": "pair with 15506, K562"}, "ZFN 18889 (synthetic)": {"test_system": "ZFN 18889 (synthetic)", "details": "pair with 24859, HLA A2, HEK293; with 18881 approx 3%; A3 allele 10% and 9%"}, "ZFN 24859 (synthetic)": {"test_system": "ZFN 24859 (synthetic)", "details": "pair with 18889, HLA A2, HEK293; A3 allele 10%"}, "ZFN 15909 (synthetic)": {"test_system": "ZFN 15909 (synthetic)", "details": "pair with 15910, EL/KK FokI, K562; 6 and 11% with wt FokI"}, "ZFN 16787 (synthetic)": {"test_system": "ZFN 16787 (synthetic)", "details": "pair with 16783, 10 ug mRNA, primary T cells; background 2.4%"}, "ZFN 18881 (synthetic)": {"test_system": "ZFN 18881 (synthetic)", "details": "pair with 18889, HLA A2, HEK293; A3 allele 9%"}, "ZFN 15506 (synthetic)": {"test_system": "ZFN 15506 (synthetic)", "details": "pair with 15507, K562"}, "ZFN 28393 (synthetic)": {"test_system": "ZFN 28393 (synthetic)", "details": "pair with 28394, HEK293"}, "ZFN 28394 (synthetic)": {"test_system": "ZFN 28394 (synthetic)", "details": "pair with 28393, HEK293"}, "ZFN 25539 (synthetic)": {"test_system": "ZFN 25539 (synthetic)", "details": "pair with 25540, 10 ug mRNA, primary T cells; background 2.4%"}},
  "data": [
    {"sequence": "ACTCTGGGGTAGATGGAGAGCAGTACCT (double strand) [28385 site]", "values": [
      {"measurement": "activity (% gene modification)", "setting": "ZFN 28385 (synthetic)", "value": 39}
    ]},
    {"sequence": "AGAAGGCTGTGGGCTCCTCAGAGAAAAT (double strand) [28386 site]", "values": [
      {"measurement": "activity (% gene modification)", "setting": "ZFN 28386 (synthetic)", "value": 39}
    ]},
    {"sequence": "CCACAGCCAGAGCCTCAGCAGGAGCCTG (double strand) [28406 site]", "values": [
      {"measurement": "activity (% gene modification)", "setting": "ZFN 28406 (synthetic)", "value": 34}
    ]},
    {"sequence": "CGCAAGAGGCTGGAGAGGCTGAGGACTG (double strand) [28405 site]", "values": [
      {"measurement": "activity (% gene modification)", "setting": "ZFN 28405 (synthetic)", "value": 34}
    ]},
    {"sequence": "CTACTCGGGCCATCGGCGGCTGCCTCGG (double strand) [15487 site]", "values": [
      {"measurement": "activity (% gene modification)", "setting": "ZFN 15487 (synthetic)", "value": 15}
    ]},
    {"sequence": "CTGACTTTGCATGTGCAAACGCCTTCAA (double strand) [25540 site]", "values": [
      {"measurement": "activity (% CD3-negative cells)", "setting": "ZFN 25540 (synthetic)", "value": 28.1}
    ]},
    {"sequence": "CTGGATGGGGCTTGGCTGATGGTCAGCA (double strand) [28404 site]", "values": [
      {"measurement": "activity (% gene modification)", "setting": "ZFN 28404 (synthetic)", "value": 64}
    ]},
    {"sequence": "GAAATAAGGCATACTGGTATTACTAATG (double strand) [15872 site]", "values": [
      {"measurement": "activity", "setting": "ZFN 15872 (synthetic)", "value": 13, "unit": "% NHEJ"}
    ]},
    {"sequence": "GAGGAGAGCAGGCCGATTACCTGACCCA (double strand) [15873 site]", "values": [
      {"measurement": "activity", "setting": "ZFN 15873 (synthetic)", "value": 13, "unit": "% NHEJ"}
    ]},
    {"sequence": "GCCCGCGGGCAGTTCTGCGCGGGGGTCA (double strand) [28403 site]", "values": [
      {"measurement": "activity (% gene modification)", "setting": "ZFN 28403 (synthetic)", "value": 64}
    ]},
    {"sequence": "GCGGGGGAAAGAGAGGAGGAGAGAAGGA (double strand) [15910 site]", "values": [
      {"measurement": "activity", "setting": "ZFN 15910 (synthetic)", "value": 14, "unit": "% NHEJ"}
    ]},
    {"sequence": "GCTCGAAGGCTTGGTGGCCGGGGCCAGT (double strand) [15507 site]", "values": [
      {"measurement": "activity (% gene modification)", "setting": "ZFN 15507 (synthetic)", "value": 2}
    ]},
    {"sequence": "GTATGGCTGCGACGTGGGGTCGGACGGG (double strand) [18889 site]", "values": [
      {"measurement": "activity", "setting": "ZFN 18889 (synthetic)", "value": 6, "unit": "% NHEJ"}
    ]},
    {"sequence": "TCCTCTGGACGGTGTGAGAACCTGGCCC (double strand) [24859 site]", "values": [
      {"measurement": "activity", "setting": "ZFN 24859 (synthetic)", "value": 6, "unit": "% NHEJ"}
    ]},
    {"sequence": "TCTCCCAGGGTGGTTCAGTGGCAGAATT (double strand) [15909 site]", "values": [
      {"measurement": "activity", "setting": "ZFN 15909 (synthetic)", "value": 14, "unit": "% NHEJ"}
    ]},
    {"sequence": "TCTCGGAGAATGACGAGTGGACCCAGGA (double strand) [16787 site]", "values": [
      {"measurement": "activity (% CD3-negative cells)", "setting": "ZFN 16787 (synthetic)", "value": 9.4}
    ]},
    {"sequence": "TTATCTGGATGGTGTGAGAACCTGGCCC (double strand) [18881 site]", "values": [
      {"measurement": "activity", "setting": "ZFN 18881 (synthetic)", "value": 3, "unit": "% NHEJ"}
    ]},
    {"sequence": "TTGATGTCAGGGAAGATCTCTCTGATGA (double strand) [15506 site]", "values": [
      {"measurement": "activity (% gene modification)", "setting": "ZFN 15506 (synthetic)", "value": 2}
    ]},
    {"sequence": "TTGATTCGAGACATGGTGTAGGTGAAGC (double strand) [28393 site]", "values": [
      {"measurement": "activity (% gene modification)", "setting": "ZFN 28393 (synthetic)", "value": 49}
    ]},
    {"sequence": "TTGCGGATCCGGGAGCAGCTTTTCTCCT (double strand) [28394 site]", "values": [
      {"measurement": "activity (% gene modification)", "setting": "ZFN 28394 (synthetic)", "value": 49}
    ]},
    {"sequence": "TTGTTGCTCCAGGCCACAGCACTGTTGC (double strand) [25539 site]", "values": [
      {"measurement": "activity (% CD3-negative cells)", "setting": "ZFN 25539 (synthetic)", "value": 28.1}
    ]}
  ]
}
